The target in one series is T1, P-IR(Tyr1158) (Homo sapiens, UniProt P06213).
T1 construct: expressed in transfected cells; host or cells: rat L6 myoblast cells (L6hIR, generated at Novo Nordisk)
The experiment in a line: Activation of IR in L6hIR cells in vitro, sandwich ELISA. Format: cell-based. The note with it: ligands 0-1000 nM for 30 min, 0.1% human serum albumin, three replicates. A general note: In an ELISA, binding on a coated surface is turned into a signal by an enzyme label.

The nature of series [1]: Pharmacokinetics after s.c. injection in mice. Format: in vivo. To be noted: mouse; for t1/2 / Cmax: mean [95% CI]; for t1/2 / tmax / Cmax: n = 15; for tmax: median; for Cmax: sparse sampling 0-240 min, population PK and non-compartment analysis.
Description: Pharmacokinetic (PK) parameters were estimated from the two experiments with sparse sampling (three blood samples per mouse) for 0–240 min. Initially, population PK models[25] for each compound was developed in Nonmem (Icon, Dublin, Ireland) and approximately 60 individual post-hoc concentration-time data points per mouse was subjected to non-compartment analysis.
In another series the test system is H4IIE cells. The experiment in a line: Mitogenic potency from thymidine-incorporation in H4IIE cells. Format: cell-based, rat. To be noted: weighted mean [95% CI], at least three independent experiments.
A short description of series [2]: Lowering of blood glucose in mice with L6hIR xenografts. In kind it is in vivo, mouse. The note with it: 300 or 600 nmol/kg s.c., experiment D.
Description: Blood glucose and plasma concentrations of test compounds and endogenous mouse insulin were assessed as described previously[10].
A further series has as its system L6hIR cells. The experiment in a line: Mitogenic potency from thymidine-incorporation in L6hIR cells. Format: cell-based, rat. To be noted: weighted mean [95% CI], at least three independent experiments.
The subject of series [3] is IR and IGF-1R in L6hIR xenografts. The experiment in a line: Acute activation of IR and IGF-1R in L6hIR xenografts in vivo. To be noted: experiment A; 300 nmol/kg s.c., single treatment, euthanized 20 min later; n = 7-8. On the set-up: species or system mouse.
Description: Male BALB/c nude mice (CAnN.Cg-Foxn1 nu/Crl) were purchased from Charles River (Charles River Laboratories Germany, Sulzfeld, Germany) at age of seven weeks and housed five mice per cage in individually ventilated Techniplast GR 900 Seal Safe Plus cages, with unrestricted access to a complete pelleted rodent diet (Altromin 1324, Brogården, Hørsholm, Denmark) and tap water (non-chlorinated, non-acidified). In the animal room the temperature was 18–24 °C, with relative humidity at 30–70%, air change 8–15 times/h and a light-dark cycle of 12/12 h. All mice were acclimatized for 10 days before experiments were started. On day 0, all mice were injected s.c. in the right flank with 2.5 million L6hIR (six experiments) or L6 cells (one experiment), suspended in 0.1 ml PBS. On the same day treatment with vehicle or test compounds was started and continued either once or twice daily until the end of the experiment (Supplementary Table S5). […]
L6hIR cell xenograft samples were lysed in cell extraction buffer as described previously[10]. Protein concentration of cell and xenograft lysates was assessed with Pierce BCA protein assay kit (Thermo Fisher Scientific, Hvidovre, Denmark), according to the manufacturer’s instructions.
[4] abbreviates: s.c., range over doses of 300 and 600 nmol/kg of HI and IX10.

T1 sequence (P06213 28-1370 isoform P06213-2 limits assumed): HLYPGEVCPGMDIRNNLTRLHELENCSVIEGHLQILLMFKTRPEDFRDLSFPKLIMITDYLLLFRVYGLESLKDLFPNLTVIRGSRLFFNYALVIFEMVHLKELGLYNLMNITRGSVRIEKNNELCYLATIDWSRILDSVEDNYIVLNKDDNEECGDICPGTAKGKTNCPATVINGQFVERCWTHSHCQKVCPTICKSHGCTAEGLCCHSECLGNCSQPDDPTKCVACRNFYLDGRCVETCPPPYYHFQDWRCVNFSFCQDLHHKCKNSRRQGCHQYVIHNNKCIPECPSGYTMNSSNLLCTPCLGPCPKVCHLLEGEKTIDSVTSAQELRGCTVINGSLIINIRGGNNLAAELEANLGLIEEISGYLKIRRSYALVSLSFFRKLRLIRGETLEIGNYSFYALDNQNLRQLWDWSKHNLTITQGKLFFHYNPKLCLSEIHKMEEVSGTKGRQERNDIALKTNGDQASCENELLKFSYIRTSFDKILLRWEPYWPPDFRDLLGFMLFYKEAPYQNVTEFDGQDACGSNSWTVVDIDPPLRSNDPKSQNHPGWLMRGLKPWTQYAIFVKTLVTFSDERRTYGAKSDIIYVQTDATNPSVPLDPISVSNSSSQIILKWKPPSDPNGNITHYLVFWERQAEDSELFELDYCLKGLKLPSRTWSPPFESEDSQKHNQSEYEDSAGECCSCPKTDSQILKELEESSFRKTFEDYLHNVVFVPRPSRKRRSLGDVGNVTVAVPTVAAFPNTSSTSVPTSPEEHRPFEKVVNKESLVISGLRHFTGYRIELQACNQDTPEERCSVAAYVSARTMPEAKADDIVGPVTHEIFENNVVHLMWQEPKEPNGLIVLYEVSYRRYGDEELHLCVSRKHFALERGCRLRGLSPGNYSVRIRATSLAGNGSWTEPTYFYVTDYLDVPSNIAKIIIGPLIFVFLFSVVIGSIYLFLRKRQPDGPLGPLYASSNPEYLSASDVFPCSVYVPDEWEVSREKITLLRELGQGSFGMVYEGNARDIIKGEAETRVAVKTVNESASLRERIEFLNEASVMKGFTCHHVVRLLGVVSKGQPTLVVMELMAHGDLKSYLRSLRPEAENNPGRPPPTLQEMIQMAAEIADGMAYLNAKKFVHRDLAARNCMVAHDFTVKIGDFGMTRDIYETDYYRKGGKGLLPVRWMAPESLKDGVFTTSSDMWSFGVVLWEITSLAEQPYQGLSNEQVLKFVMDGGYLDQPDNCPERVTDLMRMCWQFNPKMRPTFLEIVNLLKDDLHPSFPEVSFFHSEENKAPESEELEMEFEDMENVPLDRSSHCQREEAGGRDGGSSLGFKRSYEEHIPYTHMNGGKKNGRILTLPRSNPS
T1 sequence (P06213 763-1382 partner limits assumed): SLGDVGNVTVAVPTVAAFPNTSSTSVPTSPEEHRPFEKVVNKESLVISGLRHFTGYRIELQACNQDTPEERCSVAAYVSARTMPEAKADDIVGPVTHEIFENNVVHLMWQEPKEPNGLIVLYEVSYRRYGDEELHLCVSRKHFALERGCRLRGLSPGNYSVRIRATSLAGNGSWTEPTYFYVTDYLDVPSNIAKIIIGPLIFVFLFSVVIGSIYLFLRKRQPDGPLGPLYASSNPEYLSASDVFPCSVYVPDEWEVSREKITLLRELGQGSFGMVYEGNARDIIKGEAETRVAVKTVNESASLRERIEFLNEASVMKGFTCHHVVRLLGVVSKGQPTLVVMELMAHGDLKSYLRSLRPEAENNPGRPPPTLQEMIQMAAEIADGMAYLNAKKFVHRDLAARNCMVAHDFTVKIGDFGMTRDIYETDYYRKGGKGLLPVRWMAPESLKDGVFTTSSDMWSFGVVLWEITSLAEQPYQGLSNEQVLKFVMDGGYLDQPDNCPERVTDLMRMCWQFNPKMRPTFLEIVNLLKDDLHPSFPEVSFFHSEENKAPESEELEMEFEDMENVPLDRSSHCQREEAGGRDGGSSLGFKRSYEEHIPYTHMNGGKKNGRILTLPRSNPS
Description for H4IIE cells: (§1) Fitting of dose-response curves describing thymidine-incorporation in vitro and activation of IR and IGF-1R, including calculation of EC50 values, were conducted with GraphPad Prism (GraphPad Software Inc., La Jolla, CA, USA).
H4IIE cells (ATCC, Manassas, VA, USA) were cultured in minimum essential medium (MEM) (Gibco) supplemented with 10% (v/v) FBS, 100 µg/ml penicillin and 100 U/ml streptomycin, 1% (v/v) MEM non-essential amino acids and 1% (v/v) pyruvate (all from Gibco).
Description for P-IR(Tyr1158): L6hIR cells were seeded in 12-well plates and grown until 90–100% confluence in DMEM (Gibco, Invitrogen, Carlsbad, CA, USA). Cells were stimulated with increasing concentrations of ligands (0–1000 nM) for 30 min in DMEM (Gibco) medium containing 0.1% human serum albumin. Subsequently, cells were washed three times in ice-cold phosphate buffered saline (PBS) and snap-frozen by pouring liquid nitrogen into the wells. Cells were lysed in 100 µL lysis buffer (cell extraction buffer from BioSource, Invitrogen, Carlsbad, CA, USA; supplemented with 1 mmol/l 4-(2-aminoethyl)benzenesulfonyl fluoride hydrochloride, and protease inhibitor cocktail from Sigma-Aldrich).
as §1

The term EC50 denotes the concentration giving half of the maximal effect. A low value points to an effect from little substance. For the substance “IGF-1: human IGF-1, reference ligand in receptor activation assays”, the EC50 with P-IR(Tyr1158) was 0.0258 µM.
With human insulin [HI], in series [1] (300 nmol/kg s.c., experiment H), the t1/2 is 96 [85 ; 107] min, the tmax is given as 11 min and the Cmax is 725.7 [654.0 ; 797.4] nmol/l. In series [1] (600 nmol/kg s.c., experiment I), the t1/2 is 52 [48 ; 56] min, the tmax was 17 min and the Cmax is 812.5 [761.7 ; 863.4] nmol/l. Besides, in series [1] (setting [4]), the elimination half-life fell in the range of 60 to 90 min, the maximum plasma concentration lay in the range of 500 to 850 nmol/L and the “time of maximum plasma concentration after s.c. injection” value is 11 to 17 min. For the same substance, in the series on H4IIE cells, the “mitogenic potency H4IIE cells (% of HI)” value is listed as 100 % of HI. The “Duration of decreased blood glucose” value in series [2] is 4 to 6 h. In the series on L6hIR cells, the “mitogenic potency L6hIR cells (% of HI)” value is on record as 100 % of HI. For the same substance, the “Activation of IR and IGF-1R in L6hIR xenografts in vivo” value in series [3] was “acute activation of IR and IGF-1R”.

Source of the values: paper PMC7190841 (Scientific Reports, 2020).
